Test results reported in the nanobody polyreactivity screen of Harvey et al. (2022).

Experiment: yeast display, Sf9 membrane polyspecificity reagent, FACS + sequencing; frameworks hold sequencing errors
Summary of the method: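 Synthetic nanobody libraries on Saccharomyces cerevisiae BJ5465 were galactose-induced for 36–48 hours, stained 1 hour at 4 °C with 10% biotinylated, detergent-solubilized Sf9 membrane reagent and enriched on streptavidin microbeads. FACS then separated cells into low and high (top ~1%) gates by anti-HA (expression) and streptavidin (reagent binding) fluorescence. Genes were colony-PCR amplified, MiSeq 2 × 250 sequenced and CDR-length filtered. A clone's polyreactivity label is that of its gate of origin.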

| Sequence | polyreactivity (PSR sort gate) |
| --- | --- |
| QVQLVESGGGLVQAGGSLRLSCAASGSTFAGNGMGWYRQAPGKEGELVAGIDVTGGSTYYADSVKGRFTISRDNAKKTVDLQMNSLKPEDTAVYYCYARYVYHSSFAGFDYWGQGTQVTVSS | low polyreactivity |
| QVQLVESGGGLVQAGGSLRLSCAASGRTFGPYAMGWYRQAPGKEREFVAAISYSGGSTYYADSVKGRFTISRDIAKNTVYLQMNSLKPEDTAVYYCAARLPSDHRPVVRGGYEMGYWGQGTQVTVSS | low polyreactivity |
| QVQLVESGGGLGQAGASLRLSCAASGLTFRYYALGWYRQAPGKLMELVAAISSRGASTYYADSVKGRITISRDNAKNTVYLQMTSLKPEDTAVYYCAARYTGKYEREYNYWGQGTQVTVSS | high polyreactivity |
| QVQLVESGGGLVQAGGSLRLSFAASGFTFGWYAMGWYRQAPGKGRELVAAISGGDSRTYADSVKGRFTISRDNAKNTVYLQMNSLKPADTAVYYCNAENRQLYWWTVARSHYGYWGQGTQVTVSS | low polyreactivity |
| QVQLVESGGGLVQAGGSLRLSCAASGSIFDWYAMGWYRQAPGKERELVAAIDSSGSSTYYADSVKGRFTISRDNAKNTVYLQMNSLKPEDTAVYYCAADSDWIRYWFGSLYGSDYWGQGTQVTVSS | low polyreactivity |
| QVQLVESGGGLVQAGGSLRLSCAASGRTFRSYAMGWYRQAPGKEREFVAAISRSGASTRYADSVKGRFTISRDNAKNTVYLQMNSLKPEDTAVYYCAAVWPDVRGYDYWGQGTQVTVSS | high polyreactivity |
| QVQLVESGGGLVQAGGSLRLSCAASGSTFISNDMGWYRQAPGKEREFVAAITASGGSTYYADSVKGRFTISRDYAKNTVYLQMNSLKPEDTAVYYCARVYTFLDVYFRYGYWGQGTQVTVSS | low polyreactivity |
| QVQLVESGGGLVQAGGSLRLSCAASGRTFRRYAMGWYRQAPGKERELVATITNAGSTYYADSVKGRFTISSDNAKNTVYLQMNSLKPEDTSVYYCAARVPYKSDYWGQGTQVTVSS | low polyreactivity |
| QVQLVESGGGLVQAGGSLRLSCAASGRIFQYNAMGWYRQAPGKERELVAAIRRGGGSTYYADSVKGRFTISRDNAKNTVYLQMNSLKPEDTAVYYCADRRQRVSFYPEYDYWGQGTQVTVSS | low polyreactivity |
| QVQLVESGGGLVQAGGILRLSCDASGFTFGYYTMGWYRQAHGKEREFVAAITGGSGSTYYADSVKGRFTISRDNAKNTVYLQMNSLKPEDTAVYYCAASIWRGLTPLLIGFDYWGQGTQVTVSS | high polyreactivity |
| QVQLVESGGGLVQAGGSLRLSCAASGNILSVYTLGWYRQAPGKERELVANITYSGDRTYADSVQVRFTISRDNAKTTVYLQMKILKPEDTAVYYCSKDGYPTGGPYWGGMDYWGQGTQVTVSS | low polyreactivity |
| HVQLVESGGGLVQAGGSLRLSCAASGPTFVTNAKGWYRQAPGKERELVAAISRSGGHTYYADSVKGRFTISRDIAKNTVYLQMNSLKPEDTAVYYCAKNRGPRTLYDYWGQGTQVTVSS | high polyreactivity |
| QVQLVESGGGLVQAGGSLRLSCAAYGRTFNDYAMGWYRQAPGKERELVAAIDSDGDTNYADSVKGRFTISRDNAKNTVYLQMNSLKPEDTAVFYCNAVRLVVQEWYYYFTFDYWGQGTQVTVSS | low polyreactivity |
| QVQLVESGGGLVQAGGSLRLSCAASGSTFGYYAMGWYRQAPGKEREFVAAITYGDGNTYYADSVKGRFTISRDNAKNTVYLQMNSLKPEDTAVYYCAKYYWAPTGAHGGYGYWGQGTQVTVSS | low polyreactivity |
| QVQLVESGRGLVQAGGSLRLRCAASGSTFVYNTMGWYRQAPGKEMELVASISSDGNTYYADSVKGRFTISRDNAKNTVYLQMNSLKPEDTAVFYCGARYYYDWRFVGYDYWGQGTQVTVSS | low polyreactivity |
| QVQLVVSGGGLVQAGGSLRLSCAASGSFFPIYAMGWYRQAPGKERELVAAITSGGSTNYADSVKGRFTISRDNAKNTVYLQMNSLKPEDTAVYYCAAGGPDHADRYEYWGQGTQVTVSS | low polyreactivity |
| QVQLVESGGGLVQAGGSLRLSCAASGSTFVANTMGWYRQAPATERELVASITSGDSTNYADSVKGRFTISRDNAKNTVYFQMKSLKPEDTAVYYCAAETVWYYVGGQLIYYYWGQGTQVTVSS | low polyreactivity |
| QVQLVESGGGLVQAGGSLRLSCAASGRIFGQNAMGWYRQAPGKERELVAVISQSGGRTYYADSVKGRFTISRDNAKNTVYLQMNSLKPEDTAVYYCAKGGYQHYWGQGTQVTVSS | high polyreactivity |
| QVQLVESGGGLVQAGGRLRLSCAASGGIFVSYAMGWYRQSPGKEREMVAAITSGGGTSYADSVKGRFTISRDNAKNTVYLQMNSLKPEDTEVYYCAARFMWSVFGRKGGYWGQGTQVTVSS | low polyreactivity |
| QVQLVESGGGLVQAGGSLRLSCAASGRTFRIYAMGWYRQAPGKERELVAAITKRGGITYYADSVKGRFTISRDNAKNTVYFQMNSLKPEDTAVYYCNKLPEPYDYDYWGQGTQVTVSS | high polyreactivity |
| QVQLVESGGGLVQAGGSLRLSCAASGLIFTGNTMGWSRQAPGKETELVADITWSDGSTYYADSVKGRFTISRDTENNTVYLQMNSLKPEDTAVYYCAADSVLDRPVLYLWPWYLGDYWGQGTQVTVSS | low polyreactivity |
| QVQLVESGGGLVQAGGSLRLSCAASGRTFYRNAMGWYRQAPGKERELVATLNSGGSTHYADSVKGRFTISRDNAKNTVYLQMNSLKPEDTAVYYCAARSPSYRGSLSYYWGQGTQVTVSS | high polyreactivity |

| Sequence | polyreactivity (PSR sort gate) |
| --- | --- |
| QVQLVESGGGVVQAGGSLRLSCAASGSIFSLYAMGWYRQAPGNERELVDAISSSGTSTYYADSVKGRFTISRDNAKNSVYLHMNSLKPEDTAVYYCNAYRRRATYNGDYWGQGTQVTVSS | high polyreactivity |
| QVQLVESGGRLVQAGGSLRLSCAASVSTFRKYAMGWYRQAPGKEREFVAAITWSTGTTYYADSVKGRFTISRDTAKNTVYLQMNSLKPEDTAVYYCAADSQPPHELYESIEHESWGQGTQVTVSS | low polyreactivity |
| QVQLVESGGGLVQAGGSLRLSCAASGNIFDGNSMGWYRQAPGKERELVAAITGRGGGTYYADSVKGRFTISRDNAKNTVYLQMNSLKPEDTAVYYCAAPWVVRRTAYDYWGQGTQVTVSS | high polyreactivity |
| QVQLVESGGGLVQAGGSLRLSCAASGLTLRRYAMGWYRQAPGKETELVAGITSGGSTYYADSVKGRFTISRDNAKNTVYLQMYSLKPEDTAVYYCAARVRKYYKPYGYWGQGTQVTVSS | high polyreactivity |
| QVQLVESGGGLVQAGGSLRLSCAASGSTFLNYVMGWYRQAPGKERELVATINSGDSTNYADSVKGRFTISRDNAKNTVYLQMNSLKPEDTAVYYCAAEGNYWVDYWGQGTQVTVSS | low polyreactivity |
| QVQLVESGVGLVQAGGSLRLSCAASGRIFAGYAMGWYRQAPGKERELVATISSGGSTYYADSVKGRFTISRDNAKNTVYLQMNSLKPEDTAVYYCAAEYGTRQYSSYYKLFNYWGQGTQVTVSS | low polyreactivity |
| QVQLVESGGGLVQAGGSLRLSCSATGSTFTINSMGWYRQAPGKERELVAATSKRGTNTYYADSVKGRFTISRDNAKNTVYLQMNSMKTEDSAVYYCKAPGHRQNGLGDYWGQGTQVTVSS | high polyreactivity |
| QVQLVESGGGLVQAGGSLRLSCAASGRILVRNAMGWYRQAPGKERELVAAIRRGTSTNYADSVKGRFTISRDNAKNTVYLQMNSLKPEDTAVYYCAVRAASPYLDGAWRRRYDYWGQGTQVTVSS | low polyreactivity |
| QVQLVESGGGLVQAGGSLRLSCAASGRIFGRYVMGWYRQAPGKERELVAAITSRDDSTYYADSVKGRFTISRDNAKNTVYLQMTSLKPEDTAVYYCAATWGRGYDYWGQGTQVTVSS | high polyreactivity |
| QVQLVDSGGGLVQAGGSLRLSCAASGSTSYWYAMGWYRLAPWKEMELFATIRSRGGSTSYADSVKGRFTISRDNAKNTVYLQMNSLKPEDTAVYYCAVEYQSWKGWWFDYWGQGTQVTVSS | high polyreactivity |
| QVQLVESGGGLVQAGGSLRLSCAASGSTFSTYAMGWYRQAPGKERELVAAIRWSGGSTYYADSVKGRFTISRDNAKNTVYLQMNSLKPEDTAVYYCAKGIRRWYGGSDYWGQGTQVTVSS | low polyreactivity |
| QVQLVESGGGLVQAGGSLRLSCAASGNTFPVYAMGWYRQAPGKERELVAAINTSGGSTYYADSVKGRFTISRDNAKYTVYLQMNSLKPEDTAVYYCAADWSYYGDELYYWGQGTQVTVSS | low polyreactivity |
| QVQLVESGGGLVQAGGSLRLSCAASGSTFYVNAMGWYRQAPGKERELVATISSGGSTNYADSVKGRFTISRDNAKNTVYLQMNSLKPEDTAVYYCAKEYGSIIPYDYWGQGTQVSVSS | low polyreactivity |
| QVQLVETGGVLVQAGGSLRLSCAASGRIFFYYVMGWYRQAPGKERELVAGITRGGITNYADSVKGRLTISRDNAKNTVYLQMNSLKPEDTAVYYCKARAPSYYRYRASAAYDYWGLGTQVTVSS | high polyreactivity |
| QVQLVESGGGLVQAGGSLRLSCASSGSTIVHYAMGWYRQAPGKERELVAGITDTDNHELRRLCEGRFTISRDNAKNTVYLQMNSLKPEDTAVYFCNADDTYYQLGGITGYDYWGQCTQVTVSS | low polyreactivity |
| QDQLVESGGGLVQAGGSLRLSCAASGITIWRYAMGWYRQAPGKERELVAAISWSGSRTYYADSVKGRFTISRDNAKNTVYLQMNSLKPEDTAVYYCAAAFDLWITITGFDYWGQGTQVTVSS | low polyreactivity |
| QVQLVESGGGLVQAGGSLRLSCAASGSIFRAYVMGWYRQAPGTERELVAAISRGGSTNYADSVKGRFTISRDNAKNTVFLQMNSLKPEDTAVYYCNAGRGLREDDYWGQGTQVTVSS | low polyreactivity |
| QVQLVESGGGLVQAGGSLRLSCAASGITFRFYAMGWYRPAPGKEREFVAAISSRGGRTYYADSVKGRFTISRDNATNTVYLQMNSLKPEDTAVYYCAADFYYRTVATVTSVARYDYWGQGTQVTVSS | high polyreactivity |
| QVQLVESGGGLVQAGGSLRLSCAASGRIFTYYAMGWYRQAPGKERELVAAITGSGGSTYYADSVKGRFTISRDNAKNTVYLQMNSLKPEDTAVYYCAAYWFTATWYYYWGQGTQVTVSS | high polyreactivity |
| QVQLVESGGGLVQAGGSLRLSCAASGLTLFRNAMGWYRQAPGKERELVAAISSGGSTYYADSVKGRFTISRDNAKNTVYLQMNSLKPEDTAVYYCATDSVSPVEEEDYWGQGTQVTVSS | low polyreactivity |
| QVHLVESGGGLVQAGVSLRLSCAAYVRIFGRNAMGWYRQAPGKEREFVAAITYSGTSTYYADSVKGRFTISRDNAKNTVYLQMNSLKREDTAVYYCNAQYLPSHVYGRYSSTFNYWGQGTQLTVSS | low polyreactivity |
